Data on two molecules can be found in patent US20200181278A1 (MITSUBISHI TANABE PHARMA, published 2020).

This assay deals with T1, mouse CD138 His (mouse, UniProt P18828 23-255, limits assumed).
T1 construct: also called mCD138; not shown: His tag
T1 sequence: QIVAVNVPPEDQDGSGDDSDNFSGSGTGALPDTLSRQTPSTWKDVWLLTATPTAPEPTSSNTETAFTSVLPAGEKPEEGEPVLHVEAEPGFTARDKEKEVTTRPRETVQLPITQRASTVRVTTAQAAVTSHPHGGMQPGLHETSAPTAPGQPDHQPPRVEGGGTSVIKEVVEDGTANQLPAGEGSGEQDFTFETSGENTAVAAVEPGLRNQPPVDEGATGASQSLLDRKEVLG
In words: SPR, mouse CD138 His immobilised, antibody as analyte. The method, then: Murine IgGs were purified from the hybridoma supernatants and the IgGs were subject to SPR (surface plasmon resonance) for kinetic binding measurements. […] […] KDs were measured using bivalent analyte fit.

B1: F12P7G11 (antibody, V domains shown)
VH: QVQLQQSGAELARPGASVKLSCKASGYTFSSHWMQWVKQRPGQGLEWIGAIYPGDGDTRFTQKFKGKATLTADKSSNTAYMQLSSLASEDSAVYYCARGIYYDRSRAMDYWGQGTSVTVSS
VL: QIVLSQSPAILSASPGEKVTMTCRASSSVNYMHWYQQKPGSSPKHWIYATSYLASGVPARFSGSGSGTSYSLTISRVEAEDAATYYCQQWSSDPLTFGAGTKLELKR
notes: Murine IgG purified from hybridoma supernatant
As for B1, the binding result is on record as “no binding”.

B2: F11AP11E5 (antibody, V domains shown)
VH: QVQLQQSGAELVKPGASVKLSCKASGYTFTNYYMYWVKQRPGQGLEWIGEINPGNGGTNFNEKFKNKATLTVDKSSSTAYMQLSSLTSEDSAVYYCTTRFAYWGQGTLVIVSA
VL: DVVMTQTPLSLSVTIGQPASISCKSGQSLLYSNGKTYLTWLQQRPGQAPKLLMYQVSKLDPGIPDRFSGSGSETDFTLKISRVEAEDLGVYYCLQNTYYPHTFGAGTKLELKR
notes: as for B1
Take B2: the binding result is “no binding”.
